Source: the Human Domainome abundance scans (Beltran et al. 2025)
± gives the uncertainty stated by the source.

B1: Ankyrin repeat and SOCS box protein 14, residues 532 to 572; numbered along this chain, A6NK59 (parent)
chain: RSLKHLCRLKIRKCMGRLHLRCPVFMSFLPLPNRLKAYVLY

Variants of: B1
Assay: abundance fitness (aPCA) (normalised: wild type 0, dead -1); higher = more abundant; growth selection in yeast, the domain comes from the species named
Settings: Homo sapiens
Variant RSLKHLCRLKIRKCMGRLHLRCPVFMSFLPLPNRCKAYVLY [L35C] has an abundance fitness of -0.135 ± 0.21. Work on RSLKHLCRLKIRKCMGRLHLRCPVFMSFLPLPNRDKAYVLY [L35D] yielded an abundance fitness of -1.24 ± 0.23. For RSLKHLCRLKIRKCMGRLHLRCPVFMSFLPLPNREKAYVLY [L35E], the abundance fitness was -1.12 ± 0.26. Variant RSLKHLCRLKIRKCMGRLHLRCPVFMSFLPLPNRGKAYVLY [L35G] has an abundance fitness of -1.13 ± 0.094. Variant RSLKHLCRLKIRKCMGRLHLRCPVFMSFLPLPNRHKAYVLY [L35H] has an abundance fitness of -0.955 ± 0.35. RSLKHLCRLKIRKCMGRLHLRCPVFMSFLPLPNRIKAYVLY [L35I] showed an abundance fitness of -0.18 ± 0.11. Work on RSLKHLCRLKIRKCMGRLHLRCPVFMSFLPLPNRKKAYVLY [L35K] yielded an abundance fitness of -1.29 ± 0.47. RSLKHLCRLKIRKCMGRLHLRCPVFMSFLPLPNRNKAYVLY [L35N] showed an abundance fitness of -0.729 ± 0.47. For RSLKHLCRLKIRKCMGRLHLRCPVFMSFLPLPNRPKAYVLY [L35P], the abundance fitness was -0.913 ± 0.19. RSLKHLCRLKIRKCMGRLHLRCPVFMSFLPLPNRRKAYVLY [L35R] gave an abundance fitness of -1.28 ± 0.12. RSLKHLCRLKIRKCMGRLHLRCPVFMSFLPLPNRSKAYVLY [L35S] showed an abundance fitness of -0.66 ± 0.091. Work on RSLKHLCRLKIRKCMGRLHLRCPVFMSFLPLPNRTKAYVLY [L35T] yielded an abundance fitness of -0.966 ± 0.17. RSLKHLCRLKIRKCMGRLHLRCPVFMSFLPLPNRVKAYVLY [L35V] showed an abundance fitness of -0.103 ± 0.048. RSLKHLCRLKIRKCMGRLHLRCPVFMSFLPLPNRWKAYVLY [L35W] gave an abundance fitness of 0.044 ± 0.082. With RSLKHLCRLKIRKCMGRLHLRCPVFMSFLPLPNRLAAYVLY [K36A] the abundance fitness was -0.382 ± 0.075. In the case of RSLKHLCRLKIRKCMGRLHLRCPVFMSFLPLPNRLCAYVLY [K36C], the abundance fitness is reported as -0.398 ± 0.13. RSLKHLCRLKIRKCMGRLHLRCPVFMSFLPLPNRLEAYVLY [K36E] showed an abundance fitness of -0.732 ± 0.16. In the case of RSLKHLCRLKIRKCMGRLHLRCPVFMSFLPLPNRLFAYVLY [K36F], the abundance fitness is reported as -0.022 ± 0.21. RSLKHLCRLKIRKCMGRLHLRCPVFMSFLPLPNRLGAYVLY [K36G] gave an abundance fitness of -0.599 ± 0.073. For RSLKHLCRLKIRKCMGRLHLRCPVFMSFLPLPNRLIAYVLY [K36I], the abundance fitness was -0.274 ± 0.18. Variant RSLKHLCRLKIRKCMGRLHLRCPVFMSFLPLPNRLLAYVLY [K36L] has an abundance fitness of -0.242 ± 0.053. Work on RSLKHLCRLKIRKCMGRLHLRCPVFMSFLPLPNRLMAYVLY [K36M] yielded an abundance fitness of -0.398 ± 0.12. Variant RSLKHLCRLKIRKCMGRLHLRCPVFMSFLPLPNRLNAYVLY [K36N] has an abundance fitness of -0.932 ± 0.3. Work on RSLKHLCRLKIRKCMGRLHLRCPVFMSFLPLPNRLPAYVLY [K36P] yielded an abundance fitness of -0.725 ± 0.11. Variant RSLKHLCRLKIRKCMGRLHLRCPVFMSFLPLPNRLQAYVLY [K36Q] has an abundance fitness of -0.374 ± 0.12. For RSLKHLCRLKIRKCMGRLHLRCPVFMSFLPLPNRLRAYVLY [K36R], the abundance fitness was -0.294 ± 0.055. Variant RSLKHLCRLKIRKCMGRLHLRCPVFMSFLPLPNRLSAYVLY [K36S] has an abundance fitness of -0.662 ± 0.09. For RSLKHLCRLKIRKCMGRLHLRCPVFMSFLPLPNRLTAYVLY [K36T], the abundance fitness was -0.423 ± 0.071. For RSLKHLCRLKIRKCMGRLHLRCPVFMSFLPLPNRLVAYVLY [K36V], the abundance fitness was -0.051 ± 0.058. RSLKHLCRLKIRKCMGRLHLRCPVFMSFLPLPNRLWAYVLY [K36W] gave an abundance fitness of -0.062 ± 0.057. In the case of RSLKHLCRLKIRKCMGRLHLRCPVFMSFLPLPNRLYAYVLY [K36Y], the abundance fitness is reported as -0.335 ± 0.23. Work on RSLKHLCRLKIRKCMGRLHLRCPVFMSFLPLPNRLKCYVLY [A37C] yielded an abundance fitness of -0.091 ± 0.11. For RSLKHLCRLKIRKCMGRLHLRCPVFMSFLPLPNRLKEYVLY [A37E], the abundance fitness was 0.021 ± 0.1. Variant RSLKHLCRLKIRKCMGRLHLRCPVFMSFLPLPNRLKGYVLY [A37G] has an abundance fitness of -0.291 ± 0.05. For RSLKHLCRLKIRKCMGRLHLRCPVFMSFLPLPNRLKHYVLY [A37H], the abundance fitness was -0.118 ± 0.072. Work on RSLKHLCRLKIRKCMGRLHLRCPVFMSFLPLPNRLKLYVLY [A37L] yielded an abundance fitness of -0.404 ± 0.06. Variant RSLKHLCRLKIRKCMGRLHLRCPVFMSFLPLPNRLKMYVLY [A37M] has an abundance fitness of -0.207 ± 0.082. RSLKHLCRLKIRKCMGRLHLRCPVFMSFLPLPNRLKPYVLY [A37P] gave an abundance fitness of -0.995 ± 0.11. RSLKHLCRLKIRKCMGRLHLRCPVFMSFLPLPNRLKQYVLY [A37Q] showed an abundance fitness of 0.083 ± 0.093. In the case of RSLKHLCRLKIRKCMGRLHLRCPVFMSFLPLPNRLKRYVLY [A37R], the abundance fitness is reported as -0.002 ± 0.045. RSLKHLCRLKIRKCMGRLHLRCPVFMSFLPLPNRLKSYVLY [A37S] showed an abundance fitness of -0.143 ± 0.059. RSLKHLCRLKIRKCMGRLHLRCPVFMSFLPLPNRLKVYVLY [A37V] gave an abundance fitness of -0.482 ± 0.058. For RSLKHLCRLKIRKCMGRLHLRCPVFMSFLPLPNRLKWYVLY [A37W], the abundance fitness was -0.502 ± 0.057. Variant RSLKHLCRLKIRKCMGRLHLRCPVFMSFLPLPNRLKAAVLY [Y38A] has an abundance fitness of -0.343 ± 0.063. Variant RSLKHLCRLKIRKCMGRLHLRCPVFMSFLPLPNRLKACVLY [Y38C] has an abundance fitness of -0.622 ± 0.1. RSLKHLCRLKIRKCMGRLHLRCPVFMSFLPLPNRLKADVLY [Y38D] showed an abundance fitness of -0.681 ± 0.11. In the case of RSLKHLCRLKIRKCMGRLHLRCPVFMSFLPLPNRLKAEVLY [Y38E], the abundance fitness is reported as -0.599 ± 0.081. Variant RSLKHLCRLKIRKCMGRLHLRCPVFMSFLPLPNRLKAGVLY [Y38G] has an abundance fitness of -0.59 ± 0.091. With RSLKHLCRLKIRKCMGRLHLRCPVFMSFLPLPNRLKAHVLY [Y38H] the abundance fitness was -0.535 ± 0.16. RSLKHLCRLKIRKCMGRLHLRCPVFMSFLPLPNRLKAIVLY [Y38I] gave an abundance fitness of -0.293 ± 0.29. RSLKHLCRLKIRKCMGRLHLRCPVFMSFLPLPNRLKAKVLY [Y38K] gave an abundance fitness of -0.485 ± 0.091. RSLKHLCRLKIRKCMGRLHLRCPVFMSFLPLPNRLKALVLY [Y38L] showed an abundance fitness of -0.346 ± 0.084. Work on RSLKHLCRLKIRKCMGRLHLRCPVFMSFLPLPNRLKAMVLY [Y38M] yielded an abundance fitness of -0.454 ± 0.13. RSLKHLCRLKIRKCMGRLHLRCPVFMSFLPLPNRLKAPVLY [Y38P] gave an abundance fitness of -0.731 ± 0.12. Work on RSLKHLCRLKIRKCMGRLHLRCPVFMSFLPLPNRLKAQVLY [Y38Q] yielded an abundance fitness of -0.45 ± 0.083. Work on RSLKHLCRLKIRKCMGRLHLRCPVFMSFLPLPNRLKARVLY [Y38R] yielded an abundance fitness of -0.446 ± 0.052. Variant RSLKHLCRLKIRKCMGRLHLRCPVFMSFLPLPNRLKASVLY [Y38S] has an abundance fitness of -0.436 ± 0.059. In the case of RSLKHLCRLKIRKCMGRLHLRCPVFMSFLPLPNRLKATVLY [Y38T], the abundance fitness is reported as -0.478 ± 0.082. For RSLKHLCRLKIRKCMGRLHLRCPVFMSFLPLPNRLKAVVLY [Y38V], the abundance fitness was -0.558 ± 0.059. Work on RSLKHLCRLKIRKCMGRLHLRCPVFMSFLPLPNRLKAWVLY [Y38W] yielded an abundance fitness of 0.295 ± 0.052. RSLKHLCRLKIRKCMGRLHLRCPVFMSFLPLPNRLKAYALY [V39A] gave an abundance fitness of -0.361 ± 0.066. RSLKHLCRLKIRKCMGRLHLRCPVFMSFLPLPNRLKAYDLY [V39D] showed an abundance fitness of -0.95 ± 0.22. RSLKHLCRLKIRKCMGRLHLRCPVFMSFLPLPNRLKAYGLY [V39G] showed an abundance fitness of -0.743 ± 0.069. In the case of RSLKHLCRLKIRKCMGRLHLRCPVFMSFLPLPNRLKAYILY [V39I], the abundance fitness is reported as -0.022 ± 0.24. Work on RSLKHLCRLKIRKCMGRLHLRCPVFMSFLPLPNRLKAYLLY [V39L] yielded an abundance fitness of -0.098 ± 0.087. Work on RSLKHLCRLKIRKCMGRLHLRCPVFMSFLPLPNRLKAYQLY [V39Q] yielded an abundance fitness of -1.3 ± 0.2. For RSLKHLCRLKIRKCMGRLHLRCPVFMSFLPLPNRLKAYSLY [V39S], the abundance fitness was -0.779 ± 0.13. RSLKHLCRLKIRKCMGRLHLRCPVFMSFLPLPNRLKAYTLY [V39T] showed an abundance fitness of -0.186 ± 0.19. In the case of RSLKHLCRLKIRKCMGRLHLRCPVFMSFLPLPNRLKAYWLY [V39W], the abundance fitness is reported as -0.43 ± 0.065. RSLKHLCRLKIRKCMGRLHLRCPVFMSFLPLPNRLKAYVAY [L40A] gave an abundance fitness of -0.075 ± 0.056. Variant RSLKHLCRLKIRKCMGRLHLRCPVFMSFLPLPNRLKAYVDY [L40D] has an abundance fitness of -0.113 ± 0.26. With RSLKHLCRLKIRKCMGRLHLRCPVFMSFLPLPNRLKAYVEY [L40E] the abundance fitness was 0.031 ± 0.059. With RSLKHLCRLKIRKCMGRLHLRCPVFMSFLPLPNRLKAYVGY [L40G] the abundance fitness was -0.312 ± 0.051. RSLKHLCRLKIRKCMGRLHLRCPVFMSFLPLPNRLKAYVPY [L40P] showed an abundance fitness of -0.405 ± 0.13. RSLKHLCRLKIRKCMGRLHLRCPVFMSFLPLPNRLKAYVQY [L40Q] showed an abundance fitness of -0.192 ± 0.092. RSLKHLCRLKIRKCMGRLHLRCPVFMSFLPLPNRLKAYVRY [L40R] gave an abundance fitness of 0.055 ± 0.046. Work on RSLKHLCRLKIRKCMGRLHLRCPVFMSFLPLPNRLKAYVSY [L40S] yielded an abundance fitness of -0.092 ± 0.078. In the case of RSLKHLCRLKIRKCMGRLHLRCPVFMSFLPLPNRLKAYVTY [L40T], the abundance fitness is reported as -0.247 ± 0.079. For RSLKHLCRLKIRKCMGRLHLRCPVFMSFLPLPNRLKAYVVY [L40V], the abundance fitness was -0.132 ± 0.056. RSLKHLCRLKIRKCMGRLHLRCPVFMSFLPLPNRLKAYVLC [Y41C] gave an abundance fitness of 0.146 ± 0.071. RSLKHLCRLKIRKCMGRLHLRCPVFMSFLPLPNRLKAYVLG [Y41G] gave an abundance fitness of 0.368 ± 0.14. For RSLKHLCRLKIRKCMGRLHLRCPVFMSFLPLPNRLKAYVLH [Y41H], the abundance fitness was 0.12 ± 0.07. With RSLKHLCRLKIRKCMGRLHLRCPVFMSFLPLPNRLKAYVLM [Y41M] the abundance fitness was 0.257 ± 0.094. With RSLKHLCRLKIRKCMGRLHLRCPVFMSFLPLPNRLKAYVLN [Y41N] the abundance fitness was -0.052 ± 0.19. In the case of RSLKHLCRLKIRKCMGRLHLRCPVFMSFLPLPNRLKAYVLR [Y41R], the abundance fitness is reported as 0.373 ± 0.056. Work on RSLKHLCRLKIRKCMGRLHLRCPVFMSFLPLPNRLKAYVLS [Y41S] yielded an abundance fitness of 0.356 ± 0.063. Variant RSLKHLCRLKIRKCMGRLHLRCPVFMSFLPLPNRLKAYVLT [Y41T] has an abundance fitness of 0.169 ± 0.17. In the case of RSLKHLCRLKIRKCMGRLHLRCPVFMSFLPLPNRLKAYVLV [Y41V], the abundance fitness is reported as 0.398 ± 0.13. RSLKHLCRLKIRKCMGRLHLRCPVFMSFLPLPNRLKAYVLW [Y41W] gave an abundance fitness of 0.072 ± 0.095.
